From the supplement of paper PMC12636428

System: Saccharomyces cerevisiae
Assay: transcriptional activation domain activity (GFP:mCherry ratio, weighted mean of sorted bins, harmonized to initial dataset scale) (arbitrary fluorescence ratio units); higher = stronger transcriptional activation
Settings: beta-estradiol 1 µM; induction time 4 h
Procedure, shortened: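 Sorting into 8 bins by GFP:mCherry ratio followed a 4-hour hold at 30 °C after cultures were diluted 1:5 into SC with 1 uM beta-estradiol. The yeast diploids carried a GFP reporter and had barcoded protein tiles, fused to an estradiol-inducible synthetic transcription factor, integrated at URA3. Barcodes were then sequenced, and tiles with under 50 reads were removed. Activation activity is the read-weighted mean of bin median fluorescence, averaged across barcodes and linearly mapped onto the initial dataset scale.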

| Sequence | transcriptional activation domain activity |
| --- | --- |
| DYTNWLGRNIVAWASKEPSTDDVKLCSGLLVKGLRLGHSDALVKLLVSMLFLT | 49000 |
| LFHVDLDKMYLMMITLCITWIHACLNVYQIHLLSLLNQWNVISSCLGLLVIVL | 41900 |
| NSLYLLPTAMTGEKPVADPLTLIRYILVWFPHIWCVICIHCHWPYFLFLNLTD | 78400 |
| LVLQTDFLLMVERVDVCLEFLEAHRDFREVEIYLLRFQQCLTRAMTLIKMFFV | 51900 |
| MIFFLLFFFSFHQVYFSLFSFRRIFLLSFLLLLLPFLLFACVLFSLLTFCPFL | 41900 |
| LGLLLVVSVRIVVTLFSLFFFILLLVALGLIILIIALIVKAIIIVVYFFFFFV | 20400 |
| ELLSVLIPPSPAETRGPTTLSTSPSFNEHGVVAEASFLSSILELGIKHPKSNN | 27900 |
| ANHQVYADWWYAWCLTYYTGTYKDVFIVLKKSLKWVPVLGWGMQSFRFIFLAR | 79000 |
| SFSSYSSLPSFPSFPYFPSFPFLPFLPFSCVLFLLFLPFLHFLLLPSFPFFYL | 70900 |
| PYSLDIKNTVLDSADLNDIQNQETSLNLGLPPLSFDSPLPVTETIPSTTDNSL | 73400 |
| MPLVRRLGAGGDRGAGTVRVRVATSSHTPHHLKVVVLSKVPFLLPDIVVDRMQ | 12900 |
| ELLYKSYLCHLFSFFFPFPFYNIFNIIVHLFFFFLSFLSFFYYFNIYSCLYIY | 69800 |
| CVCRMILAPLLHLFISFFLLCMAAVASPPLRWILWYYWGCFTVQEVNWHMLRF | 45500 |
| MPPAPKSPQARRAGAPKAKGAVRAKSGCYTCRIRRKKCDEQMNPEGSCSTCVR | 37400 |
| NRKTIGKQDPYCAARLGKEAKKTETDRRGGQTPRWDQELRFTVHDSADYYQLK | 44000 |
| WDGGPTSKLTHVLLTYRQSILVTVYSHLLLLDHSSQVWWRWMNIFFTLVIWSI | 71000 |
| YVVLQGLSGAASGFLQIVPLIIYYVKLFLMGSTPRSVYKIKYTLRHVSWGTLF | 66600 |

| Sequence | transcriptional activation domain activity |
| --- | --- |
| GASTSAFGTPSALGAKPNPFGTPATGGAFGQPAAAPAFGQPTQPAGAFGQPAQ | 40300 |
| STKVLLRVFIPVAGYFWISLNYSLVSLAFHVKFNNYFGNIGFFIWWMLNWLTM | 57300 |
| ILMLFLGCLVICDLAFNIIVTILAFTTGFTHLLLSLVPTIPPPNCFLVHWQNH | 54600 |
| YPLLVCLLDLVKNNSLDDTGWLIGLGCTLWYENSIYIVRKAMELCLRAQEKID | 52000 |
| MDNIRSKHNHLLTAGWIYAFIDFWCITLRHFLIFIASMLFYGYLCIWCPTILV | 59000 |
| GTEYEIGRPSDEEVTITRMLDKVLRRSDAVDKESLCIVAGQRVWHLRLTLHCL | 68500 |
| ERERDRDRDRERDRDRDRERAREREHERNHERRKRRRERDRERRRGKSAAAAA | 33800 |
| SNEGFDYDVELKKKNIGLILAFKEHECDSDQLVAYLVYQRMKRIVWLHKLCVV | 64600 |
| HFPKRSFRHWVGLMFFSFLTCCTLLLQFRAAVTLTVNSHLPWITRSGLWYLVL | 68800 |
| RQEREGYEDYEDGSRRKHKNRHSRSPSSDGEDRISRKRKSRRAKDVEDSHANS | 25500 |
| GWAFGTKNEDGFQLFDCTGEALGVILRLSHILRHVTTFWRLRTAVDLLLQAQC | 58900 |
| ASAAASGASTPATAAPPGGLFGKTPATAAPAAATPAATKSLFPAAATTTAPAA | 45700 |
| GQAGAPQRASARGSVQLPAQRGAQDGEPAAARRARSRDHARHKPPRHGEAVHA | 46200 |
| MDAVSDAARESPDSERGAESEAKRRKVRKGTRSCWECKRRKIRCSFSTASDSV | 38000 |
| PDRPCYSAIVRISTSRLHFYECKLYAHAFFQGLRYFMYHWRWTTTLVLMSLFL | 47200 |
| EAEGEAGAEEPAAEGEAGAEGEAGGEGELEAEPAAEGEGEAEPEAGAETEAAG | 13200 |
| GREGKKHRDRDGSSRGSSSKEKRRERSDGKKHREKSEGGKHREGRSREGRRED | 44700 |
